These results are taken from paper PMC5555656 (Molecular Biology of the Cell, 2017).

The test concerns the target T1, hexahistidine (his6)-tagged Qc-SNARE Vam7 (yeast, UniProt P32912 1-316).
T1 sequence (looked up): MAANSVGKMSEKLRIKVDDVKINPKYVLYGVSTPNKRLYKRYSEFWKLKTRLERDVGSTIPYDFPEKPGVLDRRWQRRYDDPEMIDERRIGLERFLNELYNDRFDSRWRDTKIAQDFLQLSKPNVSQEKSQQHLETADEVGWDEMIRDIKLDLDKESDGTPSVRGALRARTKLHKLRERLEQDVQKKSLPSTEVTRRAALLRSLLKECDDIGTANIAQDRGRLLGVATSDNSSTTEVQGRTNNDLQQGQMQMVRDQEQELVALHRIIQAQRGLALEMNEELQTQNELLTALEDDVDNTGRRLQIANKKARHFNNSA
As to the kind of experiment: pull-down.

B1: yeast vacuolar R-SNARE Nyv1, membrane-anchored (natural protein, UniProt Q12255 1-253, looked up)
chain: MKRFNVSYVEVIKNGETISSCFQPFQKNENYGTITSANEQITPVIFHNLIMDMVLPKVVPIKGNKVTKMSMNLIDGFDCFYSTDDHDPKTVYVCFTLVDMPKILPIRILSGLQEYESNATNELLSSHVGQILDSFHEELVEYRNQTLNSSGNGQSSNGNGQNTISDIGDATEDQIKDVIQIMNDNIDKFLERQERVSLLVDKTSQLNSSSNKFRRKAVNIKEIMWWQKVKNITLLTFTIILFVSAAFMFFYLW
Consider B1, for which the binding result was “binds”.
